What all share (assay type): biochemical
In one data set the test system is Human DNA library. Kind of data set: Sequencing with Lightning Terminators, Human DNA library (120 cycles). To be noted: Human DNA library. On the procedure: (§1) This section generally describes how the present mutant polymerases were used for sequencing-by-synthesis, and how their performance in sequencing was measured. Sequencing was performed on a breadboard instrument, essentially as described in Hertzog D, et al., “A high-performance, low-cost approach to next-generation sequencing”, BioOptics World. 2011 Issue November/December 2011.
(§2) In this example, a variety of mutations were introduced into Pfu10 by multi-site mutagenesis or into Pfu A486L/Y546H by domain substitutions to explore an acceptable degree of reduced identity and identify other mutant Pfu polymerases containing L486, F494, H546, and W477. […] Pfu10 and Pfu10-N12 were evaluated for performance in sequencing with Lightning Terminators, as described above.

For data set [1], the system named is Lightning Terminators. Briefly: Sequencing-by-synthesis with Lightning Terminators (87 cycles). More on the design: ARL (87 cycles) / Lead + Lag / Leading / Lagging: unit not given here. In outline:
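Mutant 9°N-family DNA polymerases (Therminator; JDF3 and Pfu carrying D141A/E143A/A485L) run in sequencing-by-synthesis on a breadboard instrument with 3′-OH unblocked Lightning Terminators, 87 cycles. Metrics include Lead+Lag dephasing, i.e. reading next- or previous-base signal from imperfect terminator incorporation.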

Data set [2] concerns Lightning Terminators. Kind of data set: Plate-based assay, incorporation of Lightning Terminators by control extracts. On the procedure: (§3) In this example, additional mutant polymerases were derived from Pfu polymerase. To generate the mutants, eighty-seven codons in the Pfu pol B gene were saturated using the QuikChange Lightning Mutagenesis kit and oligonucleotides containing “NDT” codons to create R, N, D, C, G, H, I, L, F, S, Y, and V substitutions with equal frequency. In some cases, mutants missing from NDT libraries were prepared in a separate QuikChange reaction with an equimolar mixture of mutagenic oligos encoding the remaining mutations (A, T, K, Q, E, P, […], W). Thirty-two clones were randomly selected from each QuikChange library (with the exception of T267, Y403, Y410, I475, G499 and K675 libraries which generated fewer transformants). Bacterial lysates were prepared and screened for incorporation of LTA and LTC using a plate-based assay with immobilized primer-templates. A limited number of mutants were also screened for utilization of LTG and LTU (similar trends; data not shown). After washing and UV cleavage (to minimize dye quenching effects), plates were read and fluorescent signals compared to Pfu controls. The following table identifies four mutant Pfu polymerases that served as controls, which were given the arbitrary names Pfu5, Pfu1, and Pfu2, along with Pfu10 (which is discussed above).
Selected lysates, based on screening results, were submitted for sequencing, and an amino acid identification was made based on the selections. […] As shown in Example 3, K477W benefits sequencing by increasing the fraction of full-length reads.

A further data set concerns dATP. Kind of data set: Template-independent DNA synthesis assay with dATP (terminal transferase activity). The procedure:
(§4) The template-independent DNA synthesis reactions employed 7.5 U TdT (Promega) or 180 nM (3×over primer) Pfu26 (D141A/E143A/A486L/Y546H/K477W/L409Y) or Pfu48 (D141A/E143A/A486R/Y546H/K477W/L409Y). Varying concentrations of dATP were added to 2 μM (TdT) or 60 nM (Pfu) T7 FOR primer (6′Fam […]) (SEQ ID NO:6) in duplicate reactions containing 1×TdT buffer with CoCl2(Promega) or 1×ThermoPol buffer (NEB). Reactions were incubated for 30 min. at 37° C. (TdT) or 60° C. (Pfu), and then inactivated with heat (TdT; 10 min. at 70° C.) or EDTA (1 ul 500 uM EDTA). Reaction products were exposed to UV using a Stratalinker (15-watt bulbs, […], 10 min). Reactions were diluted in water (TdT, 1:333; Pfu, 1:10) and 1 μl (TdT) or 0.5 μl (Pfu) aliquots were brought up to 10 μl with HiDI/LIZ 120 Size Standard. Products were heated at 95° C. for 5 min., cooled on ice for 2 min., and then analyzed on an ABI 3500 capillary electrophoresis system ([…] capillary, filter set #5, assay=GE5 LIZ120).
Terminal transferase activity was measured by the number of template-independent dATP additions. Results are shown for TdT in FIG. 9A, for Pfu26 in FIG. 9B and for Pfu48 in FIG. 9C.

The test system of another data set is LTC. Briefly: Plate-based assay with immobilized primer-templates, incorporation of LTC. To be noted: FIG. 6. The procedure: as §3
The subject of another data set is E. coli DNA library. Kind of data set: Sequencing with Lightning Terminators, E. coli DNA library (120 cycles). On the procedure: as §1, §2
Another data set concerns LTA-1. Briefly: Template-independent incorporation of LTA-1 to a priming strand. On the procedure:
This example tested the addition of a 3′-OH unblocked reversible terminator (LTA-1, shown in FIG. 1E, or LTA-2, shown in FIG. 1F) to the 3′ end of a single-stranded priming strand. The extension reaction was performed with 2 uM or 80 nM of a priming strand and varying concentrations (100/50/10/5/1 μM) of the reversible terminator. The performance of the Pfu26 polymerase was compared to TdT polymerase.
(§5) Primer extensions were carried out in duplicate 25 ul reactions containing 7.5 U calf thymus TdT, 1×Promega TdT buffer (with CoCl2), varying concentrations of LTA-1 (100 uM, 50 uM, 10 uM, 5 uM, or 1 uM), and either 2 uM (FIG. 11A to 11C) or 80 nM (FIG. 11D to 11F) of a priming strand (Fam-labeled T7 F primer (6Fam […]), SEQ ID NO:8). Controls were performed without the addition of a polymerase. Primer extensions were also carried out in reactions containing the Pfu26 mutant polymerase, 60 nM of the priming strand, and various concentrations (10 μM or 5 μM or 1 μM) of LTA-1 or LTA-2.
Reactions were incubated at 37° C. for 30 min., and then heat-killed for 10 min. at 70° C. Reaction products were split in half, and one-half was treated with UV as described in Example 7. Reactions were then diluted 1:333 (2 uM primer) or 1:13 (80 nM primer) in water, and 0.5 ul portions were analyzed by capillary electrophoresis using the conditions provided in Example 7.

Data set [3] relates to LTA-2. Briefly: Multi-cycle template-independent addition of LTA-2 (TiEOS). To be noted: 7-deaza-7-hydroxymethyl-α-tert-butyl-2-nitrobenzyl modified LTA, 3 or 6 cycles. On the procedure: This example tested the multi-cycle addition of a 3′-OH unblocked reversible terminator (LTA-2, shown in FIG. 1F) to the 3′ end of a single-stranded priming strand using the Pfu26 mutant polymerase. Single-base extension assays were performed as described in Example 7 using Pfu26 with modified LTA-2 that has a-tert-butyl substituted 2-nitrobenyl terminating group attached to 7-deaza-C7hydroxymethyl group. The modified LTA-2 optionally contains the αS triphosphate modification and HPLC-purified to isolate the Sp isomer (FIGS. 13A and 13C). At each incorporation cycle (3 cycles-FIGS. 13A&13B; 6 cycles-FIG. 13C), 1 ul was removed and saved on ice for ABI 3500 analysis. At each cycle, the remaining reaction volume was purified using MyOne T1 […] beads as follows (for the 3-cycle experiment). 127.5 ul of beads were washed 2×in 1 ml wash solution and resuspended in the original volume with the wash solution. A biotinylated, antisense T7 (underlined) primer with spacer (5′-CCCTATAGTGAGTCGTATACGGAGCATA-biotin) was added at a final concentration of 180 nM. The beads and capture oligo were mixed at 300 rpm for 30 min. at room temperature, washed 2×in 500 ul wash solution, and resuspended in 150 ul of the same. […] After purification (cycles 2-6), 2 ul of fresh enzyme/LTA mix was added, and the primer extensions were performed and analyzed as described above.

Data set [4] relates to LTA-2. Kind of data set: Template-independent incorporation of LTA-2, LTU-2, LTG-2, LTC-2 to priming strands. On the procedure: as §4
In this example, primer extension was carried out with LTA-2 (FIG. 1F) as a Rp+Sp racemic mixture of α-thiotriphosphate, using the conditions described in Example 7.
In further experiments, single-base extension reactions (10 ul) were performed with an equimolar mixture (3 uM each) of two single-stranded oligommcleotides:
Both were labeled with Fam but distinguishable by their lengths using capillary electrophoresis. Primer extension reactions were performed using the following three Pfu mutants at a concentration of 18 nM polymerase: • Pfu10: Pfu polymerase with D141A/E143A/A486L/Y546H/K477W mutations (SEQ ID NO:2) • Pfu26: Pfu polymerase with D141A/E143A/A486L/Y546H/K477W/L409Y mutations (SEQ ID NO:4) • Pfu48: Pfu polymerase with D141A/E143A/A486R/Y546H/K477W/L409Y mutations (SEQ ID NO:5) The extension reactions also employed individual αS-modified LTs in Rp+Sp racemic mixture (namely, LTA-2, LTU-2, LTG-2, and LTC-2) at final concentrations of 5 uM. LTU-2, LTG-2, and LTC-2 are all C7 or C5-hydroxymethyl-a-tert-butyl-2-nitrobenzyl modified reversible terminators like LTA-2, with uracil, guanine, and cytosine in place of adenine. […] Reactions were incubated, stopped, UV-treated, and analyzed as described in Example 7.
as §5

Numbering of substitutions follows the chain as printed. Names may count otherwise.

B1: Pfu10: Pfu D141A/E143A/K477W/A486L/Y546H, SEQ ID NO:2 (protein)
chain: MILDVDYITEEGKPVIRLFKKENGKFKIEHDRTFRPYIYALLRDDSKIEEVKKITGERHGKIVRIVDVEKVEKKFLGKPITVWKLYLEHPQDVPTIREKVREHPAVVDIFEYDIPFAKRYLIDKGLIPMEGEEELKILAFAIATLYHEGEEFGKGPIIMISYADENEAKVITWKNIDLPYVEVVSSEREMIKRFLRIIREKDPDIIVTYNGDSFDFPYLAKRAEKLGIKLTIGRDGSEPKMQRIGDMTAVEVKGRIHFDLYHVITRTINLPTYTLEAVYEAIFGKPKEKVYADEIAKAWESGENLERVAKYSMEDAKATYELGKEFLPMEIQLSRLVGQPLWDVSRSSTGNLVEWFLLRKAYERNEVAPNKPSEEEYQRRLRESYTGGFVKEPEKGLWENIVYLDFRALYPSIIITHNVSPDTLNLEGCKNYDIAPQVGHKFCKDIPGFIPSLLGHLLEERQKIKTKMKETQDPIEWILLDYRQKLIKLLANSFYGYYGYAKARWYCKECAESVTAWGRKYIELVWKELEEKFGFKVLYIDTDGLHATIPGGESEEIKKKALEFVKYINSKLPGLLELEYEGFYKRGFFVTKKRYAVIDEEGKVITRGLEIVRRDWSEIAKETQARVLETILKHGDVEEAVRIVKEVIQKLANYEIPPEKLAIYEQITRPLHEYKAIGPHVAVAKKLAAKGVKIKPGMVIGYIVLRGDGPISNRAILAEEYDPKKHKYDAEYYIENQVLPAVLRILEGFGYRKEDLRYQKTRQVGLTSWLNIKKS
modifications: Mutant of Pyrococcus furiosus Polymerase
In the case of B1, in the data set with Human DNA library, the “% reads >85” value is 92.0%, the “ARL (120 cycles)” value was 109.7, the FracQ30 is listed as 0.65 and the “Lead + Lag” value came out at 1.1. Moreover, the “Sequencing performance with Lightning Terminators (in words)” value in the data set on Lightning Terminators [1] is recorded as “improved sequencing enzyme”. Further, in the data set with Lightning Terminators [1] (Example 3), the “% reads >85 bp” value worked out at 69.5%, the FracQ30 was found to be 0.62, the Lagging stood at 0.66 and the Leading was determined as 0.24. Besides, the “ARL (87 cycles)” value in the data set with Lightning Terminators [1] (Example 3, Therminator 110 runs, Pfu10 12 runs) is listed as 80.4. Also, the “Effect on LTA and LTU incorporation (in words)” value with Lightning Terminators [2] (K477W, or final fluorescence due to tryptophan quenching) was “negative impact on LTA and LTU incorporation”. Moreover, in the data set with Lightning Terminators [2] (control extracts, FIG. 6, FIGS. 7A-7B), the “Utilization of Lightning Terminators (in words)” value is on record as “could utilize Lightning Terminators”. In addition, the “Non-templated dA-addition (terminal transferase activity)” value in the data set on dATP is “fail to perform non-templated dA-addition”. Also, in the data set on LTC, the “Incorporation of LTC (in words)” value is reported as “maximize incorporation of LTC”. Besides, in the data set on E. coli DNA library, the “% reads >85” value was determined as 79.9%, the “ARL (120 cycles)” value was 92.3, the FracQ30 amounted to 0.63 and the “Lead + Lag” value is reported as 0.8.

B2: Pfu26: Pfu D141A/E143A/A486L/Y546H/K477W/L409Y, SEQ ID NO:4 (protein)
chain: B1 chain with L409Y
modifications: Mutant of Pyrococcus furiosus Polymerase
Regarding B2, the “Template-independent incorporation of LTA-1 (in words)” value in the data set on LTA-1 is “incorporate LTA-1 less efficiently”. Besides, the “Multi-cycle addition of LTA-2 (in words)” value with LTA-2 [3] is “did not generate an individual product with 100% efficiency after 2-3 rounds of TiEOS”. Also, the “Template-independent incorporation of LTA-2, LTU-2, LTG-2 and LTC-2 (in words)” value with LTA-2 [4] (18 nM polymerase, 5 uM terminators, CE2 and T7 oligonucleotides) is given as “superior to Calf thymus Terminal Transferase (TdT)”. The “Template-independent incorporation of LTA-2 (in words)” value with LTA-2 [4] (single-stranded priming strand) is “efficient incorporation and termination”.

The record behind these values is patent US12006519B2, “Polymerase mutants and use with 3′-OH unblocked reversible terminators” (Agilent Technologies, Inc., priority 2021, dated 2024).
